Experimental findings from patent publication US7078385B2, “Methods of inhibiting angiogenesis with fragments and homologs of troponin subunit I” (Boston Life Sciences, Inc., priority 1996, dated 2006) are described below.

The subject of data set [1] is bovine aortic smooth muscle cells (SMC). The data set is described as follows: Cell specificity: PDGF-BB-stimulated smooth muscle cell proliferation, electronic cell counting. The data set is classed as cell-based. As to conditions: doses over 5× higher than the IC50 for capillary EC. The protocol: BALB/c mouse 3T3 cells were maintained in DME/10, L-glutamine(292 μg/ml) as previously described (Klagsbrun, et al., 1977, Exp. Cell Res. 105, 99–108). Bovine aortic smooth muscle cells (SMC), isolated by explant from the medial layer of bovine aortas, were obtained from Children's Hospital (Boston, Mass.). These cells were cultured in DME/10 on uncoated tissue culture plastic as previously described (D'Amore and Smith, 1993, Growth Factors 8, 61–75).
To determine whether the proliferation of bovine aortic SMC and Balb c/3T3 cells was inhibited by TnI, the following assays were conducted. SMC were plated into multiwell dishes (2.1 cm^2/well) at a density of 10,000 cells/well. After allowing the cells to attach overnight, fresh media was applied containing either 3 ng/ml PDGF-BB alone or in combination with increasing concentrations of purified TnI. Following incubation for 72 hrs at 37° C. in 10% CO2, the cells were rinsed in PBS, detached by trypsinization and counted electronically.

Data set [2] has as its system embryonic neovascularization of the chick chorioallantoic membrane. The data set is described as follows: Chick chorioallantoic membrane (CAM) assay. The data set is classed as in vivo. As to conditions: 48 h. The protocol:
All procedures were carried out in a laminar flow hood under sterile conditions. The eggs were stored in a Favorite Egg Incubator (Leahy) at 37° C. and 65% relative humidity. On day 3 of development, fertilized White Leghorn eggs (SPAFAS) were cracked and the embryos removed from their shells and placed in plastic petri dishes. On day 6, test substances including native rabbit TnI (Greaser and Gergely, 1971, J. Biol. Chem. 246, 4226–4233) and recombinant human TnI and appropriate buffer controls were mixed in methylcellulose, disks and applied to the surfaces of the growing CAMs above the dense subectodermal plexus.

Data set [3] has as its system capillary EC from bovine adrenal cortex, VEGF-stimulated. As to conditions: read-out: IC50, capillary EC proliferation; VEGF as mitogen.
Method: (§1) Capillary EC, isolated from bovine adrenal cortex (Folkman, et al., 1979, Proc. Natl. Acad. Sci. USA 76, 5217–5221) were obtained from Children's Hospital (Boston, Mass.). […] Cells were maintained in culture in DME (Dulbecco's Modified Eagle's Medium, Gibco Laboratories) with 10% calf serum (Hyclone) (DME/10) supplemented with 3 ng/ml bFGF or Vascular Endothelial Growth Factor (VEGF) in preparation for these assays.
(§2) Briefly, capillary EC (2,000 cells per well) were plated on gelatinized 96-Well culture plates in DMEM supplemented with 5% (v/v) calf serum and incubated for 24 hours. On day 2, cells were treated with bFGF (Scios Nova; 1 ng/ml) and challenged with the test fractions and/or with purified TnI. For experiments in which VEGF was used as the mitogen, 800 cells per well were plated and allowed to incubate for 3 hours before VEGF (Biomedical Technologies Incorporated; 30 ng/ml) and TnI was added. Control wells contained cells alone and cells stimulated with bFGF or VEGF. On day 5, growth medium was removed from the plates; cells were lysed in buffer containing the detergent Triton x-100 and the phosphatase substrate p-nitrophenyl phosphate. […] Color development was determined using a rapid multiwell plate reader (Dynatech MR 5000) (Moses, et al., 1990, Science 2488, 1408–1410; Moses, et al., 1990, J. Cell. Biol. 119, 474–481; Connolly, et al., 1986, Anal. Biochem. 152, 136–140).
The test system of data set [4] is capillary EC DNA synthesis. In words: Tritiated thymidine incorporation, capillary EC DNA synthesis. As to conditions: tritiated thymidine assay. The data set is classed as cell-based, bovine. The protocol: On day one, 5,000 bovine capillary endothelial cells in DMEM/10% CS/1% GPS are plated onto each well of a 96-well pregelatinized tissue culture plate. On day two, the cell media is changed to DMEM, 2% CS, 1% GPS, 0.5% BSA (complete medium), supplemented with 10 μl of 1 mg/ml “cold” thymidine per 50 ml of medium. On day three, test samples in complete medium are added in duplicate. Additionally, […] (bFGF) is added to each well except for the appropriate controls, to a final concentration of 0.2 ng/well. On day four, 5 μl of 1:13 diluted ^3H-Thymidine stock is added to each well and the plate is incubated for 5–6 hours. Following incubation, the medium is aspirated, and the remainder is rinsed once with PBS, then twice for 5 minutes each with methanol followed by two rinses each for 10 minutes with 5% TCA. The cells are then rinsed with water three times, dried to the plate, and 100 μl of 0.3 N NaOH is added to each well. The contents of the well are then transferred to the scintillation counter vials and 3 mls of Ecolume added to each vial. Samples are then counted on the scintillation counter.

Another data set concerns BALB/c mouse 3T3 cells. The data set is described as follows: Cell specificity: tritiated thymidine incorporation in quiescent 3T3 cells. Format: cell-based. As to conditions: doses over 5× higher than the IC50 for capillary EC.
Data set [5] concerns bFGF-induced corneal angiogenesis. The data set is described as follows: Mouse corneal pocket assay. Format: in vivo, C57BL/6 mice. To be noted: 50 mg/kg subcutaneous every 12 hours, sixth day of treatment. The procedure:
Briefly, pellets composed of bFGF (40 ng/ml), sucrose octasulfate and Hydron were implanted into corneal micropockets of six C57BL/6 mice as previously described (U.S. Pat. No. 5,837,680 to Moses et al.). Troponin I (50 mg/kg) was administered systemically every 12 hours by subcutaneous injection. On the sixth day of treatment, corneal angiogenesis was evaluated using slit lamp microscopy and photographed.

For data set [6], the system named is B16-BL6 melanoma lung metastases. In words: B16-BL6 melanoma lung metastasis model. The data set is classed as in vivo, C57BL/6 mice. The protocol:
Murine melanoma B16-BL6 were cultured in RPMI 1640 (Gibco) supplemented with 10% (v/v) fetal calf serum (Hyclone), L-glutamine and NaHCO3. Cells were washed with EBSS (Gibco) and trypsinized for 3 to 5 mm with 0.25% TRL/0.2% EDTA to which culture buffer was added for washing. This preparation was then centrifuged for 10 mm at 1000 rpm, the cell pellet resuspended in fresh culture media, cell number determined using a coulter counter and cell viability determined with trypan blue (100% viability). The cell suspension was adjusted to […] for implantation. B16-BL6 cells (5×10^5/0.2 ml) were injected into the tail veins of C57BL/6 mice (approximately 6–7 weeks old). One day following tumor cell inoculation, mice were treated with rTnI systemically, twice per week, with a dose of either 1 mg/kg (n=10) or 20 mg/kg (n=10) or vehicle (150 mM NaCl, 20 mM citrate, pH3) over, a 28 day period. On day 30, animals were sacrificed, the number of lung surface metastases counted and the lungs weighed.

Data set [7] concerns capillary EC from bovine adrenal cortex, bFGF-stimulated. The data set is described as follows: bFGF-stimulated capillary EC proliferation (Example 8). Format: cell-based. As to conditions: bFGF as mitogen.
Method: as §1, §2

B1: rTnI: recombinant human fast-twitch skeletal muscle troponin I expressed in E. coli, about 21 kDa (SEQ ID NO:17) (protein, listed as Homo sapiens)
chain: MGDEEKRNRAITARRQHLKSVMLQIAATELEKEESRREAEKQNYLAEHCPPLHIPGSMSEVQELCKQLHAKIDAAEEEKYDMEVRVQKTSKELEDMNQKLFDLRGKFKRPPLRRVRMSADAMLKALLGSKHKVCMDLRANLKQVKKEDTEKERDLRDVGDWRKNIEEKSGMEGRKKMFESES
B1: the “Suppression of growth of bovine aortic smooth muscle cells” value in data set [1] is recorded as “did not suppress the growth”. Also, the “Eggs with avascular zone (inhibition of embryonic neovascularization)” value in data set [2] (130 picomoles) is 66%; in data set [2] (approximately 380 picomoles), 100%. The IC50 was approximately 1.5 nM in data set [3], approximately 240 nM in data set [4] and approximately 65 nM in data set [7]. In addition, the “Suppression of growth of Balb/c 3T3 cells” value in the data set on BALB/c mouse 3T3 cells is given as “did not suppress the growth”. Also, the “Inhibition of bFGF-induced corneal angiogenesis (in words)” value in data set [5] is recorded as “significantly inhibited”. For the same molecule, the “Inhibition of lung metastases” value is given as 52% in data set [6] (1 mg/kg systemically twice weekly, 28 days, day 30) and 64% in data set [6] (20 mg/kg systemically twice weekly, 28 days, day 30). Further, the “Number of lung surface metastases (mean, SEM)” value in data set [6] (20 mg/kg twice weekly, day 30) is 25.0+/−7.5. For the same molecule, the “Toxicity (weight or appetite loss)” value in data set [6] (1 or 20 mg/kg twice weekly, 28 days) was “no observed toxicity”. Also, the “Lung weights, treated versus control groups” value in data set [6] (1 or 20 mg/kg twice weekly, day 30) is listed as “comparable”.
